From patent US20230348603A1

Tests used:
Human VSIG4-L-Fc (human) [1] = experiment: BLI cross-blocking on hVSIG4-L-Fc, competitor 12A12 first
Human VSIG4-L-Fc (human) [2] = experiment: BLI cross-blocking on hVSIG4-L-Fc, competitor 14C05 first

Human VSIG4-L-Fc (human), sequence (chain, as listed by the source limits assumed): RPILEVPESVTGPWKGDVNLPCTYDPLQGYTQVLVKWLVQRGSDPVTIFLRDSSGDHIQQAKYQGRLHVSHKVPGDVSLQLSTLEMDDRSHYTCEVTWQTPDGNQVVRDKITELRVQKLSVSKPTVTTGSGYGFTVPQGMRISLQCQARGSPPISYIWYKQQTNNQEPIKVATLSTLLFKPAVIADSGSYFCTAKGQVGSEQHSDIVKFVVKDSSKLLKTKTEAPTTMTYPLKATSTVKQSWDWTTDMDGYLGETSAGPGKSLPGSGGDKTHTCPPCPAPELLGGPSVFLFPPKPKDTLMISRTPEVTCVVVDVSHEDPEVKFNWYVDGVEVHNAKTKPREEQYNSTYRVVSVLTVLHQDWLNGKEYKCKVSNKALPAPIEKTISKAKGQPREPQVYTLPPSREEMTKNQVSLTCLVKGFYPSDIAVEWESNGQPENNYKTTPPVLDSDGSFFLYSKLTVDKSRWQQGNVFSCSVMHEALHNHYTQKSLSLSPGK

binding signal (nm shift) (Human VSIG4-L-Fc (human) [1]): 0 nm
binding signal (nm shift) (Human VSIG4-L-Fc (human) [2]): 0 nm
Substance: isotype control antibody (Table 16)
